Test results published in publication PMC6303327 (2018).

Target: Rfa3 DNA-binding domain-E (DBD-E), OB domain, residues 1-99 (S. cerevisiae, UniProt P26755 1-99, fluorescent label NT-495 (Monolith NT protein-labeling Kit Blue-Cys) on free cysteine residues)
Assay: MST

Chain of Rfa3 DNA-binding domain-E (DBD-E), OB domain, residues 1-99 (P26755 1-99): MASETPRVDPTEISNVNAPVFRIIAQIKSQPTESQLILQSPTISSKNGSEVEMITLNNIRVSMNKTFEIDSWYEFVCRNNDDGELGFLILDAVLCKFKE

B1: Rfa1 DBD-A (residues 178-294) phosphomimetic S178D (domain or fragment)
chain: DQKTRPIFAIEQLSPYQNVWTIKARVSYKGEIKTWHNQRGDGKLFNVNFLDTSGEIRATAFNDFATKFNEILQEGKVYYVSKAKLQPAKPQFTNLTHPYELNLDRDTVIEECFDESN
- EC50: 36 µM
